Measurements taken from PMC8339130.
Read-outs that look alike come from different tables or passages of the source.

Assays:
[1] = molecular target: HIV-1 Gag matrix domain (MA) (HIV-1); assay: crystal structure; MA co-crystallised with IP6; three crystal forms: cryogenic MA_IP6_R32 (2.40 Å), cryogenic MA_IP6_C2 (2.72 Å, six chains in the asymmetric unit), ambient-temperature SFX MA_IP6_SFX_P1 (3.5 Å); PEG 3350 or PEG 4000/2-propanol, 100 mM MES pH 6.0-6.5
[2] = molecular target: HIV-1 Gag matrix domain (MA) (HIV-1); assay: as above; remark: listed apart in the source

## HIV-1 Gag matrix domain (MA) (domain or fragment)
[1]
  stoichiometry N: 3
[2]
  stoichiometry N: 6
